Assay results: patent publication US20260008815A1, “CYCLIC PEPTIDE OR SALT THEREOF, AND USES THEREOF” (FUJIFILM Corporation, priority 2023, published 2026)
Bridge positions count the residues as written; N and C are the ends. Ends that are not written are not given here. COCH2 = acetyl group that carries the bridge

Target: T1, Recombinant Human FGFR2 alpha (IIIc) Fc Chimera Protein, CF (R&D systems, 712-FR-050) (human, UniProt P21802 22-377)
T1 construct: bought; not shown: Fc part of the chimera
T1 sequence (P21802 22-377, change not shown): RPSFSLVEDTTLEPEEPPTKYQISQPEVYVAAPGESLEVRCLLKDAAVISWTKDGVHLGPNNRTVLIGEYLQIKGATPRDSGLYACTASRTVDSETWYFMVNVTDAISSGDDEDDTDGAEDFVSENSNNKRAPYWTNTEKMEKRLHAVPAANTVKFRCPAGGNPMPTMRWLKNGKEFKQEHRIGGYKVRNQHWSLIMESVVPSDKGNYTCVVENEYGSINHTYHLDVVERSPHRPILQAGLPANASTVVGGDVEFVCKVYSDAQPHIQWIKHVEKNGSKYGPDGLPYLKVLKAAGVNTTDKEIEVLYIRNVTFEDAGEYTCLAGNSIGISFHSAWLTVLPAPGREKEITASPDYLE
Assay: ELISA on plate-bound FGFR2-Fc
Summary of the method: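 Peptide binding scored by category from dose-response of background-corrected luminescence (FGFR-coated minus uncoated wells). Detection via anti-Myc antibody (2 h, room temperature) after 3 h peptide incubation on wells coated with 5 ng FGFR2 alpha (IIIc)-Fc.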

Row | ELISA luminescence signal at 10 nmol/L peptide, relative to SEQ ID NO: 47 (=1) | Binder
1 | 0.1 to 0.5 ratio | DCQQYYLYLYLWK(COCH2)I (thioether 2-13) [cyclic peptide SEQ ID NO: 366]
2 | 0.1 to 0.5 ratio | QCYYLYWYLYK(COCH2)I (thioether 2-11) [cyclic peptide SEQ ID NO: 361]
3 | 0.1 to 0.5 ratio | HCQLEYLYTYVLK(COCH2)I (thioether 2-13) [cyclic peptide SEQ ID NO: 367]
4 | 0.1 to 0.5 ratio | QCIQDLYLYLYFLK(COCH2)T (thioether 2-14) [cyclic peptide SEQ ID NO: 376]
5 | 0.1 to 0.5 ratio | DCLQFIYQYLYTVK(COCH2)I (thioether 2-14) [cyclic peptide SEQ ID NO: 375]
6 | 0.1 to 0.5 ratio | QCLQYLYQYLFK(COCH2)I (thioether 2-12) [cyclic peptide SEQ ID NO: 364]
7 | ≥ 0.7 ratio | ACGQNFYHPVQFHYFIAYK(COCH2)Q (thioether 2-19 (inferred)) [cyclic peptide SEQ ID NO: 50]
8 | 0.1 to 0.5 ratio | LCYLYQYLYQAK(COCH2)F (thioether 2-12) [cyclic peptide SEQ ID NO: 365]
9 | 0.1 to 0.5 ratio | LCYLYQYLYTTK(COCH2)Y (thioether 2-12) [cyclic peptide SEQ ID NO: 362]
10 | 0.1 to 0.5 ratio | DCQLYYLYQYVLTK(COCH2)V (thioether 2-14) [cyclic peptide SEQ ID NO: 370]
11 | 0.1 to 0.5 ratio | QCLIQDLYAYIFK(COCH2)L (thioether 2-13) [cyclic peptide SEQ ID NO: 368]
12 | 0.1 to 0.5 ratio | QCYNYQYIYQYIYK(COCH2)I (thioether 2-14) [cyclic peptide SEQ ID NO: 373]
13 | 0.1 to 0.5 ratio | LCYLYQYIYTAK(COCH2)F (thioether 2-12) [cyclic peptide SEQ ID NO: 363]
14 | 0.1 to 0.5 ratio | DCLQFLYLYLYQK(COCH2)T (thioether 2-13) [cyclic peptide SEQ ID NO: 369]
15 | ≥ 0.7 ratio | SCQGNWISNTQFRYFIAYK(COCH2)T (thioether 2-19 (inferred); not fully specified (residue 1); printed as s-(C)-QGNWISNTQFRYFIAY-(K(acetyl))-T) [cyclic peptide SEQ ID NO: 49]
16 | 0.1 to 0.5 ratio | QCEQLKYLYQYVLKL (not fully specified; thioether ring (C)-(K(acetyl))) [cyclic peptide SEQ ID NO: 372]
17 | ≥ 0.7 ratio | TCPQNFINPVQWRYFQHYK(COCH2)N (thioether 2-19 (inferred)) [cyclic peptide SEQ ID NO: 82]
18 | ≥ 0.7 ratio | QCPQNFINPVQWRYFQHWK(COCH2)N (thioether 2-19) [cyclic peptide SEQ ID NO: 93]
19 | 0.1 to 0.5 ratio | QCPQEFINPVQWRYFQHYK(COCH2)N (thioether 2-19) [cyclic peptide SEQ ID NO: 99]
20 | ≥ 0.7 ratio | DCPQNFINPVQWRYFQHYK(COCH2)N (thioether 2-19 (inferred)) [cyclic peptide SEQ ID NO: 83]
21 | 0.5 to 0.7 ratio | QCPQNFINPVQWRYYQHYK(COCH2)N (thioether 2-19 (inferred)) [cyclic peptide SEQ ID NO: 89]
22 | ≥ 0.7 ratio | RCPQNFINPVQWRYFQHYK(COCH2)N (thioether 2-19 (inferred)) [cyclic peptide SEQ ID NO: 85]
23 | 0.5 to 0.7 ratio | QCPQNFINPVQFRYFQHYK(COCH2)N (thioether 2-19) [cyclic peptide SEQ ID NO: 103]
24 | ≥ 0.7 ratio | HCPQNFINPVQWRYFQHYK(COCH2)N (thioether 2-19 (inferred)) [cyclic peptide SEQ ID NO: 86]

Row | ELISA luminescence signal at 10 nmol/L peptide, relative to SEQ ID NO: 47 (=1) | Binder
25 | 0.1 to 0.5 ratio | QCPQNFINPVQIRYFQHYK(COCH2)N (thioether 2-19) [cyclic peptide SEQ ID NO: 101]
26 | 0.1 to 0.5 ratio | QCPQHFINPVQWRYFQHYK(COCH2)N (thioether 2-19) [cyclic peptide SEQ ID NO: 100]
27 | 0.1 to 0.5 ratio | QCPQNFINPVQWRYFQHVK(COCH2)N (thioether 2-19) [cyclic peptide SEQ ID NO: 91]
28 | ≥ 0.7 ratio | QCPQNFINPVQHRYFQHYK(COCH2)N (thioether 2-19) [cyclic peptide SEQ ID NO: 106]
29 | ≥ 0.7 ratio | QCPQNFINPVQWRYFQHFK(COCH2)N (thioether 2-19) [cyclic peptide SEQ ID NO: 92]
30 | 0.1 to 0.5 ratio | QCPQGFINPVQWRYFQHYK(COCH2)N (thioether 2-19) [cyclic peptide SEQ ID NO: 95]
31 | 0.1 to 0.5 ratio | QCPQTFINPVQWRYFQHYK(COCH2)N (thioether 2-19) [cyclic peptide SEQ ID NO: 98]
32 | 0.1 to 0.5 ratio | QCPQNFINPVQSRYFQHYK(COCH2)N (thioether 2-19) [cyclic peptide SEQ ID NO: 105]
33 | 0.1 to 0.5 ratio | QCPQYFINPVQWRYFQHYK(COCH2)N (thioether 2-19) [cyclic peptide SEQ ID NO: 96]
34 | 0.1 to 0.5 ratio | QCPQNFINPVQWRYFQHSK(COCH2)N (thioether 2-19) [cyclic peptide SEQ ID NO: 94]
35 | ≥ 0.7 ratio | QCPQNFINPVHWRYFQHYK(COCH2)N (thioether 2-19 (inferred)) [cyclic peptide SEQ ID NO: 87]
36 | 0.1 to 0.5 ratio | QCPQSFINPVQWRYFQHYK(COCH2)N (thioether 2-19) [cyclic peptide SEQ ID NO: 97]
37 | 0.5 to 0.7 ratio | QCPQNFINPVQYRYFQHYK(COCH2)N (thioether 2-19) [cyclic peptide SEQ ID NO: 104]
38 | 0.1 to 0.5 ratio | QK(COCH2)PQNFINPVQWRYFQHYCN (thioether 2-19) [cyclic peptide SEQ ID NO: 399]
39 | 0.1 to 0.5 ratio | QCPQNFINPVQWRYRQHYK(COCH2)N (thioether 2-19 (inferred)) [cyclic peptide SEQ ID NO: 90]
40 | ≥ 0.7 ratio | QCPQNFINPVQWRYLQHYK(COCH2)N (thioether 2-19 (inferred)) [cyclic peptide SEQ ID NO: 88]
41 | 0.1 to 0.5 ratio | QCPQNFINPVQVRYFQHYK(COCH2)N (thioether 2-19) [cyclic peptide SEQ ID NO: 102]
42 | ≥ 0.7 ratio | ECPQNFINPVQWRYFQHYK(COCH2)N (thioether 2-19 (inferred)) [cyclic peptide SEQ ID NO: 84]
43 | 0.1 to 0.5 ratio | VCNENNWSRSQYHFFLQYK(COCH2)Y (thioether 2-19 (inferred)) [cyclic peptide SEQ ID NO: 52]
44 | ≥ 0.7 ratio | GCYWNEVQYYYLQQYK(COCH2)Q (thioether 2-16 (inferred)) [cyclic peptide SEQ ID NO: 48]
45 | 0.1 to 0.5 ratio | DCQLWYLYQYLIVK(COCH2)A (thioether 2-14) [cyclic peptide SEQ ID NO: 371]
46 | ≥ 0.7 ratio | VCHSNFLSAVQYAYFYQYK(COCH2)H (thioether 2-19 (inferred)) [cyclic peptide SEQ ID NO: 51]
47 | 0.1 to 0.5 ratio | QCLQDLYRYLYLLK(COCH2)A (thioether 2-14) [cyclic peptide SEQ ID NO: 374]
